Ends that are not written are not given here. * marks the point of attachment. FITC = O=C1OC2(c3ccc(O)cc3Oc3cc(O)ccc32)c2ccc(NC(=S)*)cc21
Target: ALFA‐tag binder 4A

Kd: 222 µM
Binder: {FITC}-SRLEEELRRRLTE [N‐terminally FITC‐labeled ALFA‐tag]

Source: article PMC12432402 (2025)
